# T1: huTfR Apical Domain-Avi-His (human, biotin on the Avi tag (BirA) where captured on streptavidin)
# T1 construct: also called huTfR apical Avi-His; hTfR Apical
# T1 chain: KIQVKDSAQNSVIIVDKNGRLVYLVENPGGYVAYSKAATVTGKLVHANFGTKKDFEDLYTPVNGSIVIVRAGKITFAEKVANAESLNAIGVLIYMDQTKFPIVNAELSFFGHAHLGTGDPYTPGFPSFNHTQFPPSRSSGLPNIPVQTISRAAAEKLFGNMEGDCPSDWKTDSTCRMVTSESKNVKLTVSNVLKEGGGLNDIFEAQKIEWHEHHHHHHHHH
# Tests used:
# [1] = target: T1, huTfR Apical Domain-Avi-His; assay: ELISA OD450, supernatant
# Protocol: Hybridoma culture supernatants from 319 hybridomas obtained as described above were screened for their ability to bind Avi-His-tagged huTfR ECD, huTfR apical domain, and muTfR ECD (as described in Example 1) as compared to binding to an irrelevant Avi-His-tagged control protein. Briefly, 96-well polystyrene plates were coated with 5 μg/ml of streptavidin (Thermo Fisher, Cat #PI21125) in coating buffer (0.05M carbonate buffer, pH 9.6, Sigma, Cat #C3041) overnight at 4° C. Coated plates were then blocked with ELISA diluent (PBS+0.5% BSA+0.05% Tween20) for one hour. Blocking buffer was removed and Avi-His-tagged human TfR, human TfR apical domain, mouse TfR and an irrelevant Avi-His-tagged protein were added at 1 μg/ml in ELISA diluent and captured for 1 hour at room temperature. After washing three times with 300 μl of PBST (PBS+0.05% Tween20, Thermo 28352), the hybridoma cell culture supernatants were added (50 μl/well) to each well. After 30 minutes of incubation at room temperature, the plates were washed three times with 300 μl of PBST. Anti-mouse IgG Fc-HRP or anti-rat IgG Fc-HRP (Jackson Immunoresearch, Cat #115-035-071 and 112-036-071, respectively) secondary antibodies were diluted 1:5000 in ELISA diluent, added to each well at 50 μl/well, and incubated for 30 minutes at room temperature with shaking. After a final set of washes (3×300 μl in PBST), 50 μl/well of BioFx TMB substrate (Surmodics, Cat #TMBW-1000-01) was added to the wells. The reaction was then quenched after 5-10 mins with 50 μl/well of 2N sulfuric acid. The plates were read for absorbance at 450 nm on a SpectraMax M5 (Molecular Devices, Sunnyvale, CA) using SoftMax Pro software.
# [2] = target: T2, Full length Mouse TfR on CHO cells (mouse, UniProt Q62351 1-763); assay: FACS MFI, supernatant
# T2 construct: also called CHO + muTfR
# T2 sequence (Q62351 whole entry): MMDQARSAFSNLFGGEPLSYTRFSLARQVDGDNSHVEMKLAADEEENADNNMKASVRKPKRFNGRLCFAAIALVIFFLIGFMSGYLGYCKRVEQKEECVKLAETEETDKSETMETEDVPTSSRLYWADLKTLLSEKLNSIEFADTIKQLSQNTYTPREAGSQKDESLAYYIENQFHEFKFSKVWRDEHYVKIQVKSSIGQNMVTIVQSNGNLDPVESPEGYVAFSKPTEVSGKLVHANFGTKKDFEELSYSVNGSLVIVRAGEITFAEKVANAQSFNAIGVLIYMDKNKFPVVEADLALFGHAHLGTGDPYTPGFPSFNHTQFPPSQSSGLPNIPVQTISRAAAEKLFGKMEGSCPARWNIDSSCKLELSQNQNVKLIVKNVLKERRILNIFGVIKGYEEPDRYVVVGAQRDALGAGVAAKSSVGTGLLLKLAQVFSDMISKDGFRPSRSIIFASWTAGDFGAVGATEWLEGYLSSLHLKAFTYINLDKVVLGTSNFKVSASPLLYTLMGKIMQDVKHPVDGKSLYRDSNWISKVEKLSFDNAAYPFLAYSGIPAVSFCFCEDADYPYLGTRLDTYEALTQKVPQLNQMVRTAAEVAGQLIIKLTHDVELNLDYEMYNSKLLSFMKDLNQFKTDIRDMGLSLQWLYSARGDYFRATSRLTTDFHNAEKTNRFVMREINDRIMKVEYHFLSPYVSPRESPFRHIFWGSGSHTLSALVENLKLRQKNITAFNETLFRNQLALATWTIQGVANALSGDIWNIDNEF
# Protocol: (§1) A total of 1536 anti-TfR hybridoma supernatants were initially screened for their ability to differentially bind CHO cells overexpressing human or mouse TfR cells compared to CHO parental cells by FACS. Overexpressing cells were harvested, washed and labeled with Pacific Blue, FITC and Pacific Orange dyes (ThermoFisher) to create uniquely barcoded cell populations. Barcoded cells (5×10⁴ of each cell population) were aliquoted into 96-well U-bottom plates and incubated with 50 μl of hybridoma cell culture supernatant or […] of commercially available purified mouse anti-human TfR monoclonal antibody (Sigma Aldrich, Cat #SAB4700515) and rat anti-mouse TfR antibody (Invitrogen, Waltham, MA, Cat #R17217) on ice for 30 minutes. After this primary incubation, the supernatants were removed via centrifugation, the cells were washed twice with 175 μl of ice-cold FACS buffer (PBS+1% FBS+2 mM EDTA), and the cells were then further incubated on ice for 20 minutes with anti-mouse IgG Fc-allophycocyanin (APC) or anti-rat IgG Fc-APC (Jackson Labs, Cat #115-136-071 and Cat #112-136-071, respectively) (diluted 1:1000). Following this secondary antibody incubation, the cells were again washed twice with ice-cold FACS buffer and resuspended in a final volume of 50 μl of FACS buffer. Binding intensity on cells was analyzed using the FACS Canto system (BD Biosciences), and the ratio of APC Mean Fluorescence Intensity (MFI) on each barcoded cell population was determined for each anti-TfR hybridoma supernatant tested.
# [3] = target: T3, Full length human TfR on CHO cells (human, UniProt P02786 1-760); assay: FACS MFI, supernatant
# T3 construct: also called CHO + huTfR; CHO + hTfR
# T3 sequence (P02786 whole entry): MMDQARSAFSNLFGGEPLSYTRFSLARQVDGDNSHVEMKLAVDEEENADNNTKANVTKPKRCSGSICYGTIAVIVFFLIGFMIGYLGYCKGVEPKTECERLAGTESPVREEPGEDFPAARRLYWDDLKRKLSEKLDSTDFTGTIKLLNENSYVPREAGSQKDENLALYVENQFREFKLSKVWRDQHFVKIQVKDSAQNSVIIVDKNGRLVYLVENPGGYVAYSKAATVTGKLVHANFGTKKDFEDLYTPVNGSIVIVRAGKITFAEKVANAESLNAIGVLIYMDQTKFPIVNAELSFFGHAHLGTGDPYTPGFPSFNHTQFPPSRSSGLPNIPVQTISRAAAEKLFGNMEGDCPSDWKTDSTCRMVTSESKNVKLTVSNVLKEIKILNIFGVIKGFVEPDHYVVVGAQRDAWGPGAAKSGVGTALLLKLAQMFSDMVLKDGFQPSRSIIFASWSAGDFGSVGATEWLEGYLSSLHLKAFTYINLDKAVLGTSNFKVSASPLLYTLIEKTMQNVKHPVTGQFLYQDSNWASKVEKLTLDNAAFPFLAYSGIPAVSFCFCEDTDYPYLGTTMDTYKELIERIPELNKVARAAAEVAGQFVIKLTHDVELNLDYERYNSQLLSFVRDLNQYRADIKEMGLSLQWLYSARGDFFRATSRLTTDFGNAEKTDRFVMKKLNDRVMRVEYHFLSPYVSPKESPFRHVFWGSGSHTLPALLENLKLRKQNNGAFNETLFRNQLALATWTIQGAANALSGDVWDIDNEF
# Protocol: as §1
# [4] = target: T2, Full length Mouse TfR on CHO cells; assay: FACS, CHO+muTfR
# Protocol: as §1
ratio over irrelevant protein [1] [fold],fold over parental (CHO WT) [2] [fold],fold over parental (CHO WT) [3] [fold],binding result [4],Binder
29,1,169,–,"TfR30 (mouse hybridoma antibody) (antibody, V domains shown, mouse IgG in hybridoma supernatant) VH: QVQLQQSGPQLVRPGASVKISCKASGYSFTNYWLHWVKQRPGQGLEWIGMIDPSDSETRLNQKFKDKATLTVDKSSSTAYMQLSSPTSEDSAVYYCARWGGGYYGFAYWGQGTLVTVSA VL: DIVMTQSQKFMSTSVGDRVSITCKASQNVRTAVAWYQQKPGQSPKALIYLASNRHTGVPDRFTGSGSGTDFTLTISNVQSEDLADYFCLQHWNYPWTFGGGTKLEIK"
48,1,87,no binding,"TfR7 (mouse hybridoma antibody) (antibody, V domains shown, mouse IgG in hybridoma supernatant) VH: DVQLQESGPGLVKPSQSLSLTCTVTGYSITSDYAWNWLRQFPGNKLEWMGYISYSGYSRHNPSLKSRISITRDTSKNQFFLQLNSVTSEDTATYYCARGDWDFDYWGQGTTLTVSS VL: DIVMTQSQKFMSTSVGDRVSVTCKASQNVLTNVAWYQQKPGHSPKALIYSSSSRNSGVPDRFTGSGSGTDFTLTISNVQSEDLAEYFCQQYNTYPYTFGGGTKLEIK"
10,1,203,no binding,"TfR9 (mouse hybridoma antibody) (antibody, V domains shown, mouse IgG in hybridoma supernatant) VH: EVQLQQSGPELVKPGASVKISCKTSGYTFTEYAMHWVKQSHGKSLEWIGGINPNDGGTSYNQKFKGKATLTVDKSSSTAYMELRSLTSEDSAVYYCSSQRWLLRGGDYWGQGTTLTVSS VL: not shown"
37,1,451,no binding,"TfR6 (mouse hybridoma antibody) (antibody, V domains shown, mouse IgG in hybridoma supernatant) VH: DVQLVESGGGLVQPGGSRKLSCAASGFTFSSFGMHWVRQAPEKGLEWVAYISSGSSAIYYADTVKGRFTVSRDNPKNTLFLQMTSLRSEDTAIYYCATSYVYDPPWFAYWGQGTLVTVSA VL: DIVMTQSHKFMSTSVGDRVSITCKASQDVSTAVAWYQQKPGQSPKLLIYWASTRPTGVPDRFTGSGSGTDYTLTISSVQAEDLALYSCQQHFSTPWTFGGGTKLEIK"
42,1,61,no binding,"TfR4 (mouse hybridoma antibody) (antibody, V domains shown, mouse IgG in hybridoma supernatant) VH: QVQLQQSGAELVRPGTSVKVSCKASGYAFTNYLIEWVKQRPGQGLEWIGVINPGSGGTTYNEKFKGKATLTADKSSSTAYMQLSGLTSDDSAVYFCARRSPYFDYWGQGTTLTVSS VL: SIVMTQTPKFLLVSAGDRVTITCKASQSVSNDVAWYQQKPGQSPKLLIYYASNRYTGVPDRFTGSGYGTDFTFTISTVQAEDLAVYFCHQDYISPTFGGGTKLEIK"
32,1,75,no binding,"TfR18 (mouse hybridoma antibody) (antibody, V domains shown, mouse IgG in hybridoma supernatant) VH: QVQLQQSGAELVRPGTSVKVSCKASGYAFTNYLIEWIKQRPGQGLEWIGVINPGNNDTTYNEMFKAKTTLTADKSSNTAYMQLSSLTSDDSAVYFCARRSPYFDYWGQGTTLTVSS VL: SIVMTQTPKFLLVSAGDRVTITCKASQSVSNDVAWYQQKPGQSPKLLIYYASNRYTGVPDRFTGSGYGTDFTFTISTVQAEDLAVYFCHQDYSSPTFGGGTKLEIK"
37,1,215,no binding,"TfR8 (mouse hybridoma antibody) (antibody, V domains shown, mouse IgG in hybridoma supernatant) VH: QVQLQQSGAELVRPGTSVKVSCKASGYAFTNYLIEWVKQRPGQGLEWIGVINPGSGGTNYNEKFKGKATLTADKSSSTAYMQLSSLTSDDSAVYFCARRSPYFDYWGQGTTLTVSS VL: SIVMTQTPKFLLVSAGDRVTITCKASQSVSNDVAWYQQKPGQSPKLLIYYASNRYTGVPDRFTGSGYGTDFTFTISTVQAEDLAVYFCHQDYISPTFGGGTKLEIK"
22,1,228,no binding,"TfR1 (mouse hybridoma antibody) (antibody, V domains shown, mouse IgG in hybridoma supernatant) VH: QVQLQQSGPELVKPGASVKMSCKASGYTFTNYYIHWVKQRPGQGLEWIGWIYPGDGSTKYNEKFKGKTTLTADKSSSTAYMLLSSLTSEDSAIYFCARDGSSAPKFTYWGQGTLVTVSA VL: DIVMTQSPSSLTVTAGEKVTMRCKSSQSLLNSGNQKNYLTWYQQKPGQPPKLLIYWASTRESGVPDRFTGSGSGTDFTLTISSVQAEDLAVYYCQNDYSYPLTFGAGTKLELK"
37,1,38,no binding,"TfR3 (mouse hybridoma antibody) (antibody, V domains shown, mouse IgG in hybridoma supernatant) VH: QVQLRQSGPELVKPGASVRISCKASGYTFTSFYIHWVKQRPGQGLEWIGWIYPGDVNTHYSDKFKGKATLTADKSSSTAYMQLSSLTSEDSAVYFCAREGYGYFAYWGQGTLVTVSA VL: DIVMTQSPSSLTVTAGEKVTMSCKSSQSLLNSGNQKNYLTWYQQKPGQPPKLLIYWASTRESGVPDRFTGVGSGTDFTLTISSVQAEDLAVYYCQNDYSYPLTFGSGTKLELK"
35,1,389,no binding,"TfR10 (mouse hybridoma antibody) (antibody, V domains shown, mouse IgG in hybridoma supernatant) VH: QVQLQQSGPELVKPGASVKMSCKASGYTFTSYYIHWVKQRPGQGLEWIGWIYPGDGNTNYNEKFKGKTTLTADKSSSTAYMLLSSLTSEDSAIYFCARDGSIPFAYWGQGTLVTVSA VL: DIVMTQSPSSLTVTAGEKVTMSCKSSQSLLNSGNQKNYLTWYQQKPGQPPKLLIYWASTRESGVPDRFTGSGSGTDFTLTISSVQAEDLAVYYCQNDYSYPLTFGAGTKLELK"
15,1,561,no binding,"TfR5 (mouse hybridoma antibody) (antibody, V domains shown, mouse IgG in hybridoma supernatant) VH: QVQLQQSGPELVKPGASVKMSCKASGYTFTNYYIHWVKQRPGQGLEWIGWIYPGDGNTNYNEKFKGKTTLTADKSSSTAYMLLSSLTSEDSAIYFCARDGSSAPKFTYWGQGTLVTVSA VL: DIVMTQSPSSLTVTAGEKVTMRCKSSQSLLNSGNQKNYLTWYQQKPGQPPKLLFYWASTRESGVPDRFTGSGSGTDFTLTISSVQAEDLAVYYCQNDYSYPLTFGAGTKLELK"
31,1,370,no binding,"TfR24 (mouse hybridoma antibody) (antibody, V domains shown, mouse IgG in hybridoma supernatant) VH: QVQLQQSGPELVKPGTSVKMSCKASGYTFTSYYIHWVKQRPGQGLEWIGWIYPGDDNTHYNENFKGKTTLTADKSSSTAYMLLSSLTSEDSAIYFCARDYYGRFAYWGQGTLVTVSA VL: DIVMTQSPSSLTVTAGERVTMSCKSSQSLLNSGNQKNYLTWFQQKPGQPPKLLIYWASTRESGVPDRFTGSGSGTDFTVTISSVQAEDLAVYYCQNDYGYPLTFGAGTKLELK"
5,1,458,no binding,"TfR2 (mouse hybridoma antibody) (antibody, V domains shown, mouse IgG in hybridoma supernatant) VH: EVQLQQSGPELVKPGASVKISCKASGYTFTDYNMHWVKQSHGKSLEWIGYIYPYNGGTGYNQKFKSKATLTVDNSSSTAYMELRSLTSEDSAVYYCATLYDGYYFDYWGQGTTLTVSS VL: DILLTQSPAILSVSPGERVSFSCRASQSIGTSIHWYQQRTNGSPRLLIKYASESISGIPSRFSGSGSGTDFTLSINNVESEDIADYYCQQSNSWPFTFGSGTKLEIK"

# Source: US20250270339A1 (Alector, published 2025)
